Reference: IntAct's records for PubMed 29039417

B1: BBSome complex member BBS2 (Homo sapiens), Q9BXC9 (parent)
chain: MLLPVFTLKLRHKISPRMVAIGRYDGTHPCLAAATQTGKVFIHNPHTRNQHVSASRVFQSPLESDVSLLSINQAVSCLTAGVLNPELGYDALLVGTQTNLLAYDVYNNSDLFYREVADGANAIVLGTLGDISSPLAIIGGNCALQGFNHEGSDLFWTVTGDNVNSLALCDFDGDGKKELLVGSEDFDIRVFKEDEIVAEMTETEIVTSLCPMYGSRFGYALSNGTVGVYDKTSRYWRIKSKNHAMSIHAFDLNSDGVNELITGWSNGKVDARSDRTGEVIFKDNFSSAIAGVVEGDYRMDGHIQLICCSVDGEIRGYLPGTAEMRGNLMDTSAEQDLIRELSQKKQNLLLELRNYEENAKAELASPLNEADGHRGIIPANTRLHTTLSVSLGNETQTAHTELRISTSNDTIIRAVLIFAEGIFTGESHVVHPSIHNLSSSICIPIVPPKDVPVDLHLKAFVGYRSSTQFHVFESTRQLPRFSMYALTSLDPASEPISYVNFTIAERAQRVVVWLGQNFLLPEDTHIQNAPFQVCFTSLRNGGHLHIKIKLSGEITINTDDIDLAGDIIQSMASFFAIEDLQVEADFPVYFEELRKVLVKVDEYHSVHQKLSADMADHSNLIRSLLVGAEDARLMRDMKTMKSRYMELYDLNRDLLNGYKIRCNNHTELLGNLKAVNQAIQRAGRLRVGKPKNQVITACRDAIRSNNINTLFKIMRVGTASS
partner: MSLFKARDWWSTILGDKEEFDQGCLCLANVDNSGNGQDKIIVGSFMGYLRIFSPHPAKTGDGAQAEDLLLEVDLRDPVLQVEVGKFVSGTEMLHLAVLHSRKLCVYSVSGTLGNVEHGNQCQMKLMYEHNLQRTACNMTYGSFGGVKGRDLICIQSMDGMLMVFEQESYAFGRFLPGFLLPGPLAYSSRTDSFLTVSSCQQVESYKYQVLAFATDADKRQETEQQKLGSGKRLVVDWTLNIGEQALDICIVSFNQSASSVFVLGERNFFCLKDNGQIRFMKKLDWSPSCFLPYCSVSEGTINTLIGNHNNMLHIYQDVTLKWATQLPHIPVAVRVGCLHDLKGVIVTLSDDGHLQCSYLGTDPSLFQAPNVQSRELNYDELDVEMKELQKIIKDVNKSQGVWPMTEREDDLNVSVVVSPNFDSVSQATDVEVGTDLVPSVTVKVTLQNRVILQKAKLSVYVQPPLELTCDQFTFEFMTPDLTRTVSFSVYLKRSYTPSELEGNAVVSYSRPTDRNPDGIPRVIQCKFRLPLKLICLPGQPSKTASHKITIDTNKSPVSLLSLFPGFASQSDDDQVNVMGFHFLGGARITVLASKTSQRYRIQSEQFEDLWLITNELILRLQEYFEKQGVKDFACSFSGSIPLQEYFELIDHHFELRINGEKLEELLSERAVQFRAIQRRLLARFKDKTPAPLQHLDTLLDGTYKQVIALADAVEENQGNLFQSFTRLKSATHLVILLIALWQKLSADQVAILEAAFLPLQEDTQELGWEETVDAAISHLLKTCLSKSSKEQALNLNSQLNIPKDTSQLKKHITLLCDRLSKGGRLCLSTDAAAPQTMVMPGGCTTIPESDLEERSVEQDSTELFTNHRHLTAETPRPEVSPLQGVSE

Variants of: B1
Settings: with pthb1_human BBS9, Q3SYG4

Row | effect of a mutation on the interaction | Variant
1 | with no effect | G688A
2 | with no effect | N651K
3 | with no effect | N651A
4 | with no effect | N651E
5 | with no effect | R661A
6 | with no effect | R661K
7 | with no effect | R661E
8 | with no effect | M634K
9 | with no effect | M634A
10 | with no effect | M634E
11 | with no effect | L633K
12 | with no effect | L633A
13 | with no effect | L633E
14 | with no effect | K673A
15 | with no effect | K673E
16 | with no effect | M645E
17 | with no effect | M645K
18 | with no effect | M645A
19 | with no effect | K641E
20 | with no effect | K641A
21 | with no effect | M640E
22 | with no effect | M640K
23 | with no effect | M640A
24 | with no effect | G670K

Row | effect of a mutation on the interaction | Variant
25 | with no effect | G670E
26 | with no effect | G670A
27 | with no effect | H665E
28 | with no effect | H665K
29 | with no effect | H665A
30 | with no effect | G683K
31 | with no effect | G683A
32 | with no effect | G683E
33 | with no effect | L669K
34 | with no effect | L669E
35 | with no effect | L669A
36 | with no effect | I679E
37 | with no effect | I679A
38 | with no effect | I679K
39 | with no effect | A631K
40 | with no effect | A631E
41 | with no effect | T666A
42 | with no effect | T666E
43 | with no effect | T666K
44 | with no effect | G657E
45 | with no effect | G657A
46 | with no effect | G657K
47 | with no effect | R681E
48 | with no effect | R681A

Row | effect of a mutation on the interaction | Variant
49 | with no effect | R681K
50 | with no effect | Q680K
51 | with no effect | Q680A
52 | with no effect | Q680E
53 | with no effect | L624E
54 | with no effect | L624A
55 | with no effect | L624K
56 | with no effect | Y658E
57 | with no effect | Y658K
58 | with no effect | Y658A
59 | disrupting interaction strength | Q677L
60 | with no effect | Q677K
61 | with no effect | Q677E
62 | with no effect | Q677A
63 | with no effect | N676K
64 | with no effect | N676E
65 | with no effect | N676A
66 | with no effect | N664A
67 | with no effect | N664K
68 | with no effect | N664E
69 | with no effect | A682E
70 | with no effect | A682K
71 | with no effect | L654E
72 | with no effect | L654A

Row | effect of a mutation on the interaction | Variant
73 | with no effect | L654K
74 | with no effect | R643E
75 | with no effect | R643K
76 | with no effect | R643A
77 | with no effect | R684K
78 | with no effect | R684E
79 | with no effect | R684A
80 | with no effect | V626A
81 | with no effect | V626K
82 | with no effect | V626E
83 | with no effect | R622K
84 | with no effect | C662A
85 | with no effect | C662K
86 | with no effect | C662E
87 | with no effect | G627K
88 | with no effect | G627A
89 | with no effect | G627E
90 | with no effect | L647E
91 | with no effect | L647K
92 | with no effect | L647A
93 | with no effect | Y648E
94 | with no effect | Y648K
95 | with no effect | Y648A
96 | with no effect | D653E

Row | effect of a mutation on the interaction | Variant
97 | with no effect | D653K
98 | with no effect | D653A
99 | with no effect | Y644K
100 | with no effect | Y644A
101 | with no effect | Y644E
102 | with no effect | N656E
103 | with no effect | N656K
104 | with no effect | N656A
105 | with no effect | E646K
106 | with no effect | E646A
107 | with no effect | L655A
108 | with no effect | L655E
109 | with no effect | L655K
110 | with no effect | K638A
111 | with no effect | K638E
112 | with no effect | T639E
113 | with no effect | T639K
114 | with no effect | T639A
115 | with no effect | N671A
116 | with no effect | N671E
117 | with no effect | N671K
118 | with no effect | A628K
119 | with no effect | A628E
120 | with no effect | D630K

Row | effect of a mutation on the interaction | Variant
121 | with no effect | D630A
122 | with no effect | D630E
123 | with no effect | L625A
124 | with no effect | L625K
125 | with no effect | L625E
126 | with no effect | I660K
127 | with no effect | I660E
128 | with no effect | I660A
129 | with no effect | R635K
130 | with no effect | R635A
131 | with no effect | R635E
132 | with no effect | D636K
133 | with no effect | D636E
134 | with no effect | D636A
135 | disrupting interaction strength | D636G
136 | with no effect | A674K
137 | with no effect | A674E
138 | with no effect | M637K
139 | with no effect | M637A
140 | with no effect | M637E
141 | with no effect | V675A
142 | with no effect | V675E
143 | with no effect | V675K
144 | with no effect | E667A

Row | effect of a mutation on the interaction | Variant
145 | with no effect | E667K
146 | with no effect | L685E
147 | with no effect | L685K
148 | with no effect | L685A
149 | with no effect | S623K
150 | with no effect | S623A
151 | with no effect | S623E
152 | with no effect | K659E
153 | with no effect | K659A
154 | with no effect | N663K
155 | with no effect | N663E
156 | with no effect | N663A
157 | with no effect | L650E
158 | with no effect | L650A
159 | with no effect | L650K
160 | with no effect | R632K
161 | with no effect | R632E
162 | with no effect | R632A
163 | with no effect | A678E
164 | with no effect | A678K
165 | with no effect | S642A
166 | with no effect | S642E
167 | with no effect | S642K
168 | with no effect | R686A

Row | effect of a mutation on the interaction | Variant
169 | with no effect | R686K
170 | with no effect | R686E
171 | with no effect | V687K
172 | with no effect | V687A
173 | with no effect | V687E
174 | with no effect | E629A
175 | with no effect | E629K
176 | with no effect | R652A
177 | with no effect | R652E
178 | with no effect | R652K
179 | with no effect | D649K
180 | with no effect | D649A
181 | with no effect | D649E
182 | with no effect | L672K
183 | with no effect | L672A
184 | with no effect | L672E
185 | with no effect | L668A
186 | with no effect | L668K
187 | with no effect | L668E
